B1: TPR t1 (parent)
chain: GACCAAUCUGCCCUCAGAGCUCGAGAACAUCUUCGGAUGCAGAGGAGGCAGGCUUCGGUGGCGCGAUAGCGCCAACGUCCUCAACCUCCAAUGCAUCCCACCACAUGAUGAUGCCUGAAGAGCCUUGGUUUUUUG

This note sets out measurements from the RNAGym collection of RNA variant scans (doi:10.1073/pnas.2313332121).

The variants in this data set derive from B1. Description: polymerase ribozyme fitness, log enrichment relative to wild type (log ratio); higher = more active; in vitro selection for triplet polymerase activity. The method in brief:
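Both subunits of a heterodimeric triplet polymerase ribozyme were given their own mutant library, built by PCR and transcribed. Each library was annealed with a biotinylated primer, the partner subunit and triplets, incubated frozen at −7 °C, and its extended constructs gel-excised, captured on streptavidin beads and amplified by RT-PCR, all in one round done in triplicate. Fitness is the logarithm of genotype enrichment relative to wild-type enrichment, with replicates averaged by inverse-variance weighting. That logarithm is base 2, and Illumina-sequenced genotypes needed ≥10 input reads and ≥1 read per output.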
For GACCAAUCUGCCCUCAGAGCUCGAGAACAUCUUCGGAUGCAGAGGAGGCAGGCUUCGGUGGCGCGAUAGCGCCAACGUCCUCAACCUCCAAUUCAUCUCACCACAUGAUGAUGCCUGAAGAGCCUUGGUUUUUUG, the “polymerase ribozyme fitness (log ratio)” value is -2.33.

With GACCAAUCUGCCCUUAGAGCUCGAGAACAUCUUCGGAUGCAGAGGAGGCAGGCUUCGGUGGCGCGAUAGCGCCAACGUCCUCAACCUCCAAUGCAUCCCACCACAUGAUGAUGUCUGAAGAGCCUUGGUUUUUUG, the “polymerase ribozyme fitness (log ratio)” value was -2.91.

On to GACCAAUCUGCCCUCAGAGCUCGAGAACAUCUUCGGAUCCAGAGGAGGCAGGCUUCGGUGGCGCGAUAGCGCCAACGUCCUCAACCUCCAAUGCAUCCCACCAUAUGAUGAUGCCUGAAGAGCCUUGGUUUUUUG, for which the “polymerase ribozyme fitness (log ratio)” value was -1.04.

GACCAAUCUGCCCUCAGAGCUCGAGAACAUCUUCGGAUGCAGAGGAGGCAGGCUUCGGUGGCGCGAUAGCGCCCACGUCCUCAACCUCCAAUGCAUCCCAGCACAUGAAGAUGCCUGAAGAGCCUUGGUUUUUUG: the “polymerase ribozyme fitness (log ratio)” value is -6.47.

Take GACCAAUCUGCCCUCAGAGCUCGAGAACAUCUUCGGAUGCAGAGGAGGCAGGCUUCGGUGGCGCGAUAGCGCCCACGUCCUCAACCUCCAAUGCAUUCCACCACAUGAUGAUGCCUGAAAAACCUUGGUUUUUUG: the “polymerase ribozyme fitness (log ratio)” value is -1.46.

Consider GACCAAUCGGCCCUCAGAGCUCGAGCACAUCUUCGGGUGCAGAGGAGGCAGGCUUCGGUGGCGCGAUAGCGCCAACGUCCUCAACCUCCAAUGCAUCCCACCACAUGAUGUUGCCUGAAGAGCCUUGGUUCUUUG, for which the “polymerase ribozyme fitness (log ratio)” value is -5.09.

As for GACCAAUCUGCCCUCAGAGCUCGAGAACAUCUUCGGAUGCAGAGGAGGCAGGCUUCGGUGGCGCGAUAACGCCAACGUCCUCAACCUCCAAUGCAUCCCACCAUAUGAUGAUGCCUGAAGAGCCUUGGUUUUUUG, the “polymerase ribozyme fitness (log ratio)” value was -2.37.

For GACCAAUCUGCCCUCAGAGUUCGAGAACAUCUGCGGAUGCAGAGGAGGCAGGCUUCGGUGGCGCGAUAGCGCCAACGUCCUCAACCUCCAAUGCAUCCCACCACAUGAUGAUGCCUGAAGAGUCUUGGUUUUUUG, the “polymerase ribozyme fitness (log ratio)” value was -6.12.

Consider GACCAAUCUGCCCUCAGAGCUCGAGAACAUCUUCGGAUGCAGAGGAGGCAGGCUUAGGUGGCGCGAUAGCGCCAACGUCCUCAACCUCCAAUGCAUCCCACCACGUGAUGCUACCUGAAGAGCCUUGGUUUUUUG, for which the “polymerase ribozyme fitness (log ratio)” value is -5.31.

Turning to GACCAAUCUGCCCUCAGAGCUCGAGAACAUCUUCGGAUUCAGAGGAGGCAGGCUUCGGUGGCGUGAUAGCGCCAACGUCCUCACCCUCCAAUGCAUCCCACCACAUGAUGAUGCCUGAAGAGCCUUGGUUUUUUG, the “polymerase ribozyme fitness (log ratio)” value was -0.386.

Consider GACCAAUCUGCCCUCAGAGUUCGAGAACAUCUUCGGAUGCAGAGGAGGCAGGCUUCGGUGGCGCGAUAGCGCCAACGUCUUGAAGCUCCAAUGCAUCCCACCACAUGAUGAUGCCUGAAGAGCCUUGGUUUUUUG, for which the “polymerase ribozyme fitness (log ratio)” value was -3.74.

Take GACCAAUCUGCCCUCAGAGCUCGAGAACAUCUUCGGAUGCAGAGGAGGCAGGCUUCGGUGGCGCGAUAGCGCCAACGUCCUCAACCUCCAAUGUAUCCCACCACAUGAUGAUGCCUGAAGAGCCUUGGUGUUUUG: the “polymerase ribozyme fitness (log ratio)” value is -1.07.

As to GACCAAUCUGCCCUCAGAGCUCGAGAACAUCUUCGGAUGCAGAGGAGGCAGGCUUCGGUGGCGCGAUAACGCCAACGUACUCAACCUCCAAUGCAUCCCACCACAUGAUGGUGCCUGAAGAGCCUUGGUUUUUUG, the “polymerase ribozyme fitness (log ratio)” value is -5.28.

For the variant GACCAAUCUGCCCUCAGAGCUCGAGAACAUCUUCGGGUGCAGAGGAGGCAGGCUUCGGUGGCGCGAUAGCGCCAACGUCCUCAACCUACAUUGCAUCCCACCACAUGAUGAUGCCUGAAGAGCCUUGGUUUUUUG, the “polymerase ribozyme fitness (log ratio)” value is -4.17.

Consider GACCAAUCUUCCCUCAGAGCUCGAGAACAUCUUAGGAUGCAGAGGAGGCAGGCUUCGGUGGCGCGAUAUCGCCAACGUCCUCAACCUCCAAUGCAUCCCACCACAUGAUGAUGCCUGAAGAACCUUGGUUUUUUG, for which the “polymerase ribozyme fitness (log ratio)” value is 0.552.

Regarding GACCAAUCUGCCCUCAGAGCUCGAGAACAUCUUCGGAUGCAGAGGAGGAAGGCUUCGGUGGCGCGAUAGCGCCAACGACCUCAACCGCCAAUGCAUCCCACCACAUGAUGAUGCCUGAAGAGCCUUGGUAUUUUG, the “polymerase ribozyme fitness (log ratio)” value was -1.01.

On to GACCAAUCUGCCCUCGGAGCUCGAGAACAUCUUCGGAUGCAGAGGAGGGAUGCUUCGGUGGCGCGAUAGCGCCAACGUCCUCAACAUCCAAUGCAUCCCACCACAUGAUGAUGCCUGAAGAGCCUCGGUUUUUUG, for which the “polymerase ribozyme fitness (log ratio)” value is -4.58.

GACCAAUCUGCCCUCAGAGCUGGAGAACAUCUUCGGAUGCAGAGGAGGCAGUCUUCGGUGGCCCGAUAGCGCCAACGUCCUCAACCUCCAAUACAUCCCACCACAUGAUGAUGCCUGAAGAGCCUUGGUUUUUUG: the “polymerase ribozyme fitness (log ratio)” value is -4.47.

With GACCAAUCUGCCCUCAGAGCUCGAGAACAUCUUCGGAUGCAGAGGAGGCAGGCUUCGGUGGCGCGAUAGAGUCAACGUCCUCAACCUCCAAUGCAUCCCAACACAUGAUGAUGCCUGAAGAGCCUUGGUUUUUUG, the “polymerase ribozyme fitness (log ratio)” value is -2.45.

Consider GACCAAUCUGCCCUCAGAGCUCGAGAACAUCUUCGGAUGCAGAGGAGGCAGGCUUCGCUGGCGCGAUAGCGCCAACGUCCUCAACCUCCAAUGCAUCCCACCACAUGAUGAUUCCUGAAGAGCCUUGGUUUUUUG, for which the “polymerase ribozyme fitness (log ratio)” value was -2.87.

Regarding GACCAAUCUGCCCUCAGAGCUCGAGAACAUCUUCGGAUGCAGAGGAGGCAGGCUUCGGUGGCGCGAUAGCGCCAACGCCCUCAACCUCCAAUGCAUCUCACCACAUGAUGAAGCCUGAAGAGCCUUGGUAUUUUG, the “polymerase ribozyme fitness (log ratio)” value is -3.27.
